Measurements published in paper PMC6828947, “The Cotton GhWRKY91 Transcription Factor Mediates Leaf Senescence and Responses to Drought Stress in Transgenic Arabidopsis thaliana”.

B1: GhWRKY27a promoter W-box probe (dsDNA)
DNA 1: GCGACTTGGTCAGCAATTGGAGTTTTGACCTTACCTCACTCTTCAGTCCAC
DNA 2: GTGGACTGAAGAGTGAGGTAAGGTCAAAACTCCAATTGCTGACCAAGTCGC
B2: GhWRKY17 promoter W-box probe (dsDNA)
DNA 1: AATTTCAAACGGCTAATCCCCACCTTTTGACCTTATCTCTTGTCAGTGACCCA
DNA 2: TGGGTCACTGACAAGAGATAAGGTCAAAAGGTGGGGATTAGCCGTTTGAAATT
B3: GhWRKY17 promoter W-box probe, unlabelled competitor (dsDNA)
DNA 1: B2 DNA 1
DNA 2: B2 DNA 2
B4: GhWRKY68 promoter W-box probe (dsDNA)
DNA 1: GCACTGTTCAATATCCGTACAAGTGGTTGACCTACAATTGCCCGTCGATCC
DNA 2: GGATCGACGGGCAATTGTAGGTCAACCACTTGTACGGATATTGAACAGTGC
B5: GhAPX1 promoter W-box probe (dsDNA)
DNA 1: TCCCCGACGTTCCGACAAGTTTTGACTATTTTATTTTCTTAAAATAAAAAGC
DNA 2: GCTTTTTATTTTAAGAAAATAAAATAGTCAAAACTTGTCGGAACGTCGGGGA

Legend:
GhWRKY91 [1] = molecular target: T1, GhWRKY91 (Gossypium hirsutum (CCRI10), UniProt A0A068LD65 1-273); assay: EMSA; LightShift Chemiluminescent EMSA Kit (Thermo Scientific); buffer, salt, pH and temperature not stated; settings: protein: recombinant; tags: N-terminal GST, removed by digestion after purification; label: biotin end label
GhWRKY91 [2] = molecular target: T1, GhWRKY91; assay: competition; excess unlabelled probe against labelled GhWRKY17 probe; LightShift Chemiluminescent EMSA Kit (Thermo Scientific); buffer, salt, pH and temperature not stated; settings: protein: recombinant; tags: N-terminal GST, removed by digestion after purification

T1 sequence (A0A068LD65 entry or part of it): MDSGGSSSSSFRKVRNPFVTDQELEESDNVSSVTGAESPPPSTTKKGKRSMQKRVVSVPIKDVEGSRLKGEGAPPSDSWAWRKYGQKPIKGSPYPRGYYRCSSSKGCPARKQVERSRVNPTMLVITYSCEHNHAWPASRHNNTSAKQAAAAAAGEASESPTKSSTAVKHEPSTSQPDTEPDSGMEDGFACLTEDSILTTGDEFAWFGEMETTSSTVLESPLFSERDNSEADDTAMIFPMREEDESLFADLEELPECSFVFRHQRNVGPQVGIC

Binder	binding result (GhWRKY91 [1])	binding result (GhWRKY91 [2])
B1	no binding	
B2	binds	
B3		binds
B4	no binding	
B5	no binding	
